From patent publication US20120316113A1, “FGF BASED FIBRIN BINDING PEPTIDES” (Baxter Healthcare S.A., priority 2011, published 2012)
Entries after “also recorded” stand apart in the source; their conditions may differ. Ends that are not written are not given here.

Columns and labels:
fibrinogen [1] = biological target: T1, fibrinogen (Homo sapiens, UniProt P02671+P02675+P02679); assay: Fibrinogen binding assay by ELISA; conditions: plate coated with 1 mg/ml fibrinogen, various concentrations, anti-His6-peroxidase detection
T1 sequence (P02671 20-629 limits assumed): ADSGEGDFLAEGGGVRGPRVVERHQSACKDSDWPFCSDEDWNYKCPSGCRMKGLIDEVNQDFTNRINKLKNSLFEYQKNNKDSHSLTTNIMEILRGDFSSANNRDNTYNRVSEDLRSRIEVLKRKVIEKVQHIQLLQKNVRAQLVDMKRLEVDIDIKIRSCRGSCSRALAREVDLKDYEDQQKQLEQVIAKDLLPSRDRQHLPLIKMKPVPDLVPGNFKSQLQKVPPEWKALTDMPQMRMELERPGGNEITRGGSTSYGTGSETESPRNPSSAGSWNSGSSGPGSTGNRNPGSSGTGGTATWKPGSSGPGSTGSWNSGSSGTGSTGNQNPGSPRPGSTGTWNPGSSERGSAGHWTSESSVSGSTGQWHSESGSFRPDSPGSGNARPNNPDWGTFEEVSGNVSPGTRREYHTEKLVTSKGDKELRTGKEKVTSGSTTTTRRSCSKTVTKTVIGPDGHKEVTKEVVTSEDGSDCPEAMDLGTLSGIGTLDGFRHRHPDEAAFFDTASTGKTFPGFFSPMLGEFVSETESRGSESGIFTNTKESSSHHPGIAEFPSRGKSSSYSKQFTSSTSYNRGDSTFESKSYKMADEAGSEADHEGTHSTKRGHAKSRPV
T1 sequence (P02675 31-491): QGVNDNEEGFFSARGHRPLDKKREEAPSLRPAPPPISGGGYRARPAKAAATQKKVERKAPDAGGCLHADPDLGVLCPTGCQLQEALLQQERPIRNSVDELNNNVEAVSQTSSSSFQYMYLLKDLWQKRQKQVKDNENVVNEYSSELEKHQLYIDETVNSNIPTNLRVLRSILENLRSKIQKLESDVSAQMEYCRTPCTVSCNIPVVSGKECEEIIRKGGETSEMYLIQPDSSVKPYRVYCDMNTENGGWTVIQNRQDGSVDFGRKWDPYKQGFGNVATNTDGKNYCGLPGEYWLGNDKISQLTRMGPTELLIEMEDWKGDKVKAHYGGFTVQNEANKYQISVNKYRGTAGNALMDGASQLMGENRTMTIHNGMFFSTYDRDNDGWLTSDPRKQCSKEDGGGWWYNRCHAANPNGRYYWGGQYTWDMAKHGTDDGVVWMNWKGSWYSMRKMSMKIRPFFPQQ
T1 sequence (P02679 27-433 limits assumed): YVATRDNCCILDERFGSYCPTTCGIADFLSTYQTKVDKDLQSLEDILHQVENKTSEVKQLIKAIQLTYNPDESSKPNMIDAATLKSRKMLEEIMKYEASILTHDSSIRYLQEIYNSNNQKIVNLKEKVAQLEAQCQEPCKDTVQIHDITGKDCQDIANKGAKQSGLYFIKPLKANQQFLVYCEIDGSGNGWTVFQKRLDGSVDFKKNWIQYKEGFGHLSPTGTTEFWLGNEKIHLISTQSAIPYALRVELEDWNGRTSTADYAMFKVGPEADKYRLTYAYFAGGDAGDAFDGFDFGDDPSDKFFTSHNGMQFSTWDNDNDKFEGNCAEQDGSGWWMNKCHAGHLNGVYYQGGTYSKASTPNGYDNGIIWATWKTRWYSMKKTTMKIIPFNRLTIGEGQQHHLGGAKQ
Method: (§1) A polystyrene 96-well plate (Nunc® Maxisorp EUSA-plates) was coated with 1 mg/ml fibrinogen (Tisseel®, Baxter AG, Vienna) overnight at 4° C. and then blocked with blocking solution (PBS+1% BSA) for 2 hours at room temperature CRT). After washing three times with PBS, purified peptides were added in various dilutions to the plate and incubated for 1 hour at RT. After the three times washing with PBS, a monoclonal anti-His6-peroxidase antibody (Sigma-Aldrich, Vienna), diluted in PBS+0.1% Tween (Sigma-Aldrich, Vienna) was added and incubated for 1 hour at RT. Finally, the plate was washed three times with PBS again and wells were incubated with o-phenylenediaminehydrochlorid substrate. Absorbance was measured at 492 nm and 620 nm. For fibrin binding analysis, the plate was first coated with fibrinogen overnight at 4° C. and then incubated with 10 I.U./ml thrombin (Tisseel, Baxter AG, Vienna) for 30 minutes at 37° C. The following procedure was the same as described above. For the surface plasmon resonance (SPR) method fibrinogen was coupled to a gold sensor chip (10% COOH—(PEG)6-C11—SH, 90% OH(PEG)3-C11—SH; Reichert Analytical, NY, USA) by amine chemistry using EDC (1-ethyl-3-[3-dimethylaminopropyl]carbodiimide hydrochloride) and NHS (N-hydroxysuccinimide) (Pierce, Ill., USA). Uncoupled sites on the gold sensor chip were blocked with 1 M ethanolamine pH 8.5 (Sigma-Aldrich, MO, USA). The purified recombinant proteins and peptides were passed over the chip's surface at a flow rate of 0.4 ml/min to 0.8 ml/min and allowed to interact. The signals were detected and recorded at the Reichert SR7000 Surface Plasmon Resonance Analytical Instrument (Reichert Analytical, NY, USA). After each measurement the sensor chip surface was regenerated by a pulse with 100 mM phosphoric acid (Mallinckrodt Chemicals, NJ, USA) after each application of the samples. Association and dissociation signals were fitted to one association curve using a prism software calculation program.
Purified, proteins and peptides in different concentrations were used for testing the binding affinity to fibrinogen and fibrin (FIG. 5).

fibrinogen [2] = biological target: T1, fibrinogen; assay: Surface plasmon resonance (SPR) binding to fibrinogen coupled to gold sensor chip; conditions: fibrinogen on sensor chip; fitted association curves
Method: as §1

[3] = system: mouse myoblast cell line (C2C12); assay: Biological activity: viability (MTT) assay of mouse myoblast C2C12 cells; type: cell-based
Method: A moose myoblast cell line (C2C12; ECACC (Sigma-Aldrich, Vienna)) was grown in Dulbecco's Modified Eagle Medium (DMEM) with 10% fetal calf serum (FCS). At 50-60% confluence cells were trypsinized and transferred to a 24-well plate (1×10^4/well).
Following a 48-hour-culture period at 37° C., cells were washed with DMEM only and then covered with medium (DMEM+1% FCS) containing various concentrations of hFGF-2 or hFGF-2 peptides. After 48 hours number of viable cells was determined by adding 3-(4,5-dimethylthiazol-2-yl)-2,5-diphenyltetrazolium bromide (MTT, Sigma-Aldrich, Vienna) as previously described {M05}.

[4] = 146 amino acid variant; cited from earlier work

Substance	binding affinity to fibrinogen (fibrinogen [1])	binding signal (SPR) (fibrinogen [2])	activity retained relative to the full length protein ([3]; relative to full length hFGF-2)	proliferative activity / cell growth effect ([3]; 48 hours, DMEM+1% FCS, MTT)	concentration dependence of biological activity ([3]; various concentrations)	isoelectric point [4]
EERGVVSIKGVCANRYLAMKEDGRLLASKCVTDECFFFERLESNNYNTYRSR (EERGVVSIKGVCANRYLAMKEDGRLLASKCVTDECFFFERLESNNYNTYRSR; not fully specified (C-terminus); cysteine pairing not given here) [pep1, recombinant truncated hFGF-2 peptide (68 aa) with C-terminal 6x HIS-tag, expressed as GST fusion in E. coli and cleaved]	high affinity	weak and short binding signals				
GVCANRYLAMKEDGRLLASKCVTDECFFFERLESNNYNTYRSR (GVCANRYLAMKEDGRLLASKCVTDECFFFERLESNNYNTYRSR; not fully specified (C-terminus); cysteine pairing not given here) [pep2, recombinant truncated hFGF-2 peptide (48 aa) with C-terminal 6x HIS-tag, ~5.2 kD]	high affinity	weak and short binding signals	approximately 50%			
Human Fibroblast growth factor-2 [hFGF-2, reference compound]	high affinity			highest proliferative activity; also recorded: highest cell growth effect	concentration dependent biological activity	9.6
